B1: LOC100129726 (parent)
chain: AKAADSPTRNDLESGLGHFSLRVH
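Also: lentivirally expressed fusions sorted by FACS into six bins by GFP to DsRed ratio, PSI derived from sequencing read proportions per bin multiplied by bin number.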

Variants of: B1
Assay: protein stability index of a GFP-peptide fusion (GPS, HEK-293T) (PSI 1-6); higher = more stable
Conditions: c terminus: a fixed tail appended
Work on AKAADSPTCNDLESGLGHFSLRVH [R9C] yielded a protein stability index of 3.04. In the case of AKAADSPTWNDLESGLGHFSLRVH [R9W], the protein stability index is reported as 1.86. AKAADSPTDNDLESGLGHFSLRVH [R9D] gave a protein stability index of 3.64. For AKAADSPTSNDLESGLGHFSLRVH [R9S], the protein stability index was 3.25. Variant AKAADSPTENDLESGLGHFSLRVH [R9E] has a protein stability index of 3.95. AKAADSPTMNDLESGLGHFSLRVH [R9M] showed a protein stability index of 3.46. Work on AKAADSPTKNDLESGLGHFSLRVH [R9K] yielded a protein stability index of 4.17. AKAADSPTNNDLESGLGHFSLRVH [R9N] showed a protein stability index of 3.51. Work on AKAADSPTTNDLESGLGHFSLRVH [R9T] yielded a protein stability index of 3.09. For AKAADSPTGNDLESGLGHFSLRVH [R9G], the protein stability index was 3.84. AKAADSPTHNDLESGLGHFSLRVH [R9H] showed a protein stability index of 3.56. With AKAADSPTVNDLESGLGHFSLRVH [R9V] the protein stability index was 2.71. In the case of AKAADSPTANDLESGLGHFSLRVH [R9A], the protein stability index is reported as 3.47. AKAADSPTINDLESGLGHFSLRVH [R9I] showed a protein stability index of 2.37. AKAADSPTPNDLESGLGHFSLRVH [R9P] gave a protein stability index of 3.07. Work on AKAADSPTLNDLESGLGHFSLRVH [R9L] yielded a protein stability index of 2.73. With AKAADSPTQNDLESGLGHFSLRVH [R9Q] the protein stability index was 3.22. AKAADSPTFNDLESGLGHFSLRVH [R9F] gave a protein stability index of 2.4. With AKAADSPTYNDLESGLGHFSLRVH [R9Y] the protein stability index was 2.7. With AKAADSPWRNDLESGLGHFSLRVH [T8W] the protein stability index was 1.98. AKAADSPSRNDLESGLGHFSLRVH [T8S] showed a protein stability index of 2.74. Variant AKAADSPQRNDLESGLGHFSLRVH [T8Q] has a protein stability index of 3.1. In the case of AKAADSPLRNDLESGLGHFSLRVH [T8L], the protein stability index is reported as 2.13. With AKAADSPGRNDLESGLGHFSLRVH [T8G] the protein stability index was 3.61. AKAADSPRRNDLESGLGHFSLRVH [T8R] showed a protein stability index of 2.53. Variant AKAADSPIRNDLESGLGHFSLRVH [T8I] has a protein stability index of 2.45. In the case of AKAADSPVRNDLESGLGHFSLRVH [T8V], the protein stability index is reported as 4.01. With AKAADSPMRNDLESGLGHFSLRVH [T8M] the protein stability index was 2.12. For AKAADSPKRNDLESGLGHFSLRVH [T8K], the protein stability index was 2.73. Variant AKAADSPCRNDLESGLGHFSLRVH [T8C] has a protein stability index of 2.07. AKAADSPHRNDLESGLGHFSLRVH [T8H] gave a protein stability index of 2.63. AKAADSPARNDLESGLGHFSLRVH [T8A] gave a protein stability index of 2.95. For AKAADSPFRNDLESGLGHFSLRVH [T8F], the protein stability index was 2.35. Work on AKAADSPDRNDLESGLGHFSLRVH [T8D] yielded a protein stability index of 3.31. For AKAADSPNRNDLESGLGHFSLRVH [T8N], the protein stability index was 3.36. Variant AKAADSPYRNDLESGLGHFSLRVH [T8Y] has a protein stability index of 2.75. Work on AKAADSPPRNDLESGLGHFSLRVH [T8P] yielded a protein stability index of 3.38. For MKAADSPTRNDLESGLGHFSLRVH [A1M], the protein stability index was 2.74. KKAADSPTRNDLESGLGHFSLRVH [A1K] gave a protein stability index of 3.34. RKAADSPTRNDLESGLGHFSLRVH [A1R] showed a protein stability index of 2.74. GKAADSPTRNDLESGLGHFSLRVH [A1G] gave a protein stability index of 3.1. SKAADSPTRNDLESGLGHFSLRVH [A1S] gave a protein stability index of 3.36. In the case of CKAADSPTRNDLESGLGHFSLRVH [A1C], the protein stability index is reported as 2.1. Variant VKAADSPTRNDLESGLGHFSLRVH [A1V] has a protein stability index of 3.39. Work on QKAADSPTRNDLESGLGHFSLRVH [A1Q] yielded a protein stability index of 3.38. For PKAADSPTRNDLESGLGHFSLRVH [A1P], the protein stability index was 3.17. In the case of HKAADSPTRNDLESGLGHFSLRVH [A1H], the protein stability index is reported as 3.27. DKAADSPTRNDLESGLGHFSLRVH [A1D] showed a protein stability index of 3.88. FKAADSPTRNDLESGLGHFSLRVH [A1F] gave a protein stability index of 2.6. Work on NKAADSPTRNDLESGLGHFSLRVH [A1N] yielded a protein stability index of 3.25. With TKAADSPTRNDLESGLGHFSLRVH [A1T] the protein stability index was 3.25. With IKAADSPTRNDLESGLGHFSLRVH [A1I] the protein stability index was 2.48. Work on YKAADSPTRNDLESGLGHFSLRVH [A1Y] yielded a protein stability index of 3.34. In the case of EKAADSPTRNDLESGLGHFSLRVH [A1E], the protein stability index is reported as 3.47. Variant WKAADSPTRNDLESGLGHFSLRVH [A1W] has a protein stability index of 2.33. Variant LKAADSPTRNDLESGLGHFSLRVH [A1L] has a protein stability index of 2.9. AKCADSPTRNDLESGLGHFSLRVH [A3C] gave a protein stability index of 2.73. AKRADSPTRNDLESGLGHFSLRVH [A3R] gave a protein stability index of 3.58. Work on AKMADSPTRNDLESGLGHFSLRVH [A3M] yielded a protein stability index of 2.27. Work on AKNADSPTRNDLESGLGHFSLRVH [A3N] yielded a protein stability index of 2.97. AKLADSPTRNDLESGLGHFSLRVH [A3L] showed a protein stability index of 2.6. AKDADSPTRNDLESGLGHFSLRVH [A3D] showed a protein stability index of 3.44. With AKIADSPTRNDLESGLGHFSLRVH [A3I] the protein stability index was 2.69. For AKEADSPTRNDLESGLGHFSLRVH [A3E], the protein stability index was 3.8. Variant AKFADSPTRNDLESGLGHFSLRVH [A3F] has a protein stability index of 2.77. In the case of AKYADSPTRNDLESGLGHFSLRVH [A3Y], the protein stability index is reported as 2.26. With AKQADSPTRNDLESGLGHFSLRVH [A3Q] the protein stability index was 3.03. Work on AKWADSPTRNDLESGLGHFSLRVH [A3W] yielded a protein stability index of 2.21. In the case of AKPADSPTRNDLESGLGHFSLRVH [A3P], the protein stability index is reported as 3.04. With AKKADSPTRNDLESGLGHFSLRVH [A3K] the protein stability index was 3.23. Work on AKHADSPTRNDLESGLGHFSLRVH [A3H] yielded a protein stability index of 3. AKSADSPTRNDLESGLGHFSLRVH [A3S] gave a protein stability index of 3.49. AKGADSPTRNDLESGLGHFSLRVH [A3G] gave a protein stability index of 3.42. AKVADSPTRNDLESGLGHFSLRVH [A3V] gave a protein stability index of 2.28. In the case of AKTADSPTRNDLESGLGHFSLRVH [A3T], the protein stability index is reported as 2.58. Variant AKAADSRTRNDLESGLGHFSLRVH [P7R] has a protein stability index of 3.56. With AKAADSTTRNDLESGLGHFSLRVH [P7T] the protein stability index was 3.2. In the case of AKAADSYTRNDLESGLGHFSLRVH [P7Y], the protein stability index is reported as 2.18. AKAADSWTRNDLESGLGHFSLRVH [P7W] gave a protein stability index of 1.65. AKAADSVTRNDLESGLGHFSLRVH [P7V] gave a protein stability index of 2.7. With AKAADSGTRNDLESGLGHFSLRVH [P7G] the protein stability index was 2.77. AKAADSMTRNDLESGLGHFSLRVH [P7M] showed a protein stability index of 2.57. In the case of AKAADSCTRNDLESGLGHFSLRVH [P7C], the protein stability index is reported as 2.16. With AKAADSATRNDLESGLGHFSLRVH [P7A] the protein stability index was 3.49. With AKAADSFTRNDLESGLGHFSLRVH [P7F] the protein stability index was 2.33. AKAADSDTRNDLESGLGHFSLRVH [P7D] gave a protein stability index of 3.64. For AKAADSNTRNDLESGLGHFSLRVH [P7N], the protein stability index was 3.27. AKAADSLTRNDLESGLGHFSLRVH [P7L] gave a protein stability index of 3.09. AKAADSSTRNDLESGLGHFSLRVH [P7S] showed a protein stability index of 2.81. Variant AKAADSHTRNDLESGLGHFSLRVH [P7H] has a protein stability index of 3.45. In the case of AKAADSITRNDLESGLGHFSLRVH [P7I], the protein stability index is reported as 2.75. Work on AKAADSQTRNDLESGLGHFSLRVH [P7Q] yielded a protein stability index of 3.41. AKAADSETRNDLESGLGHFSLRVH [P7E] showed a protein stability index of 3.28. In the case of AKAADSKTRNDLESGLGHFSLRVH [P7K], the protein stability index is reported as 2.92.
